For data set [1], the target named is T1, PUM1-HD (Pumilio-homology domain) (Homo sapiens, UniProt Q14671 828-1176). The data set is described as follows: EMSA. In general terms: In EMSA bound probe runs differently from free probe, usually more slowly.
Data set [2] addresses T2, PUM2-HD (Pumilio-homology domain) (Homo sapiens, UniProt Q8TB72 706-1056). Nature of the data set: EMSA.
Data set [3] has as its target T2, PUM2-HD (Pumilio-homology domain). The data set is described as follows: crystal structure.
Data set [4] addresses T1, PUM1-HD (Pumilio-homology domain). The data set is described as follows: crystal structure.

T2 sequence (Q8TB72 706-1056): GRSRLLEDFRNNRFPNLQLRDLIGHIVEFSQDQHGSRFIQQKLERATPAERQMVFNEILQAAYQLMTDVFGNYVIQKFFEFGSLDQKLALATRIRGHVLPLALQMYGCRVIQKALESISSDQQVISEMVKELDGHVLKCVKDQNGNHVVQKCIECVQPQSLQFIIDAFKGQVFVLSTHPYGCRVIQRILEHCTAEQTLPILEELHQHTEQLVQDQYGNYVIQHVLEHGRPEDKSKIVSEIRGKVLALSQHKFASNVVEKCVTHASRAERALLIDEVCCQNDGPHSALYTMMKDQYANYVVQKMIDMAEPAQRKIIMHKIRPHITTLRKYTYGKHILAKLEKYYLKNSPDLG
T1 sequence (Q14671 828-1176): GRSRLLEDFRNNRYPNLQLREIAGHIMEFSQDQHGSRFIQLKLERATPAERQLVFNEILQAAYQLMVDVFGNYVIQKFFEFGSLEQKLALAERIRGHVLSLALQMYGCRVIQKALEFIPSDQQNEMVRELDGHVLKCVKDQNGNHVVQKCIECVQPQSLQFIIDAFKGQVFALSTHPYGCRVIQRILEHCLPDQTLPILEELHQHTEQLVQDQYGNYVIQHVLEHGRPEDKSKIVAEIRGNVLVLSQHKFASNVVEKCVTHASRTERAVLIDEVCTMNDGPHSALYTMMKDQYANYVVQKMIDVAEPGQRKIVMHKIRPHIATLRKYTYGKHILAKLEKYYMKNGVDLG

As a reminder, the Kd is the concentration at which binding is half-saturated. Low readings indicate higher affinity, high ones lower affinity. In the case of UGUACAUA (ssRNA) [hb NRE2], the Kd in data set [1] was 1.01 ± 0.05 nM; in data set [2] it was 0.07 ± 0.01 nM.
In the case of UGUACAUC (ssRNA) [erk2 NRE], the binding result in data set [3] and in data set [4] was “binds” throughout.
Regarding UGUAGAUA (ssRNA) [p38α NREb], the figures for the Kd in data set [1] and in data set [2] were 0.63 ± 0.01 nM and 0.08 ± 0.01 nM, respectively.
With UGUAAAUA (ssRNA) [p38α NREa], the Kd was found to be 0.91 ± 0.08 nM in data set [1] and 0.17 ± 0.02 nM in data set [2].
The matching figures for UGUAUAUA (ssRNA) [hb NRE1]: 0.4 ± 0.01 nM and 0.36 ± 0.02 nM.

For the origin of these results see article PMC3063405.
